Measurements as given in US20100330078A1 (Pfizer, published 2010).

Legend:
Murine FcγRIII = target: T1, Murine FcγRIII (murine, UniProt P08508 31-215, limits assumed); test: Biacore
T1 construct: Construct not described; also called mFcγRIII
T1 sequence (looked up): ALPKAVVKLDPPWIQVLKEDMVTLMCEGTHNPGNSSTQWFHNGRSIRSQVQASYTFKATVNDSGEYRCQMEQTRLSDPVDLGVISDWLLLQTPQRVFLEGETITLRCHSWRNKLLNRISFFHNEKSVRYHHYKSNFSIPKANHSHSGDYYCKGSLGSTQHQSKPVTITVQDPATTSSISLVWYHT
Description: (§1) The ability of 22B5/DLE, which contains the IgG1 DLE triple mutations (as discussed previously in Example 2), to enhance binding to the FcγRs was evaluated in a Biacore binding experiment. The FcγR binding affinities of 22B5/DLE were compared with the binding affinity of wild type (wt) IgG1. […] The binding affinity comparison of 22B5/DLE and wild type IgG1 was also evaluated against the murine Fcγ receptors. The greatest enhancement in binding was to the mFcγRIV, followed by mFcγRI, and mFcγRIII (see FIG. 5).

Murine FcγRIV = target: T2, Murine FcγRIV (murine, UniProt A0A0B4J1G0 21-203); test: Biacore
T2 construct: Construct not described; also called mFcγRIV
T2 sequence: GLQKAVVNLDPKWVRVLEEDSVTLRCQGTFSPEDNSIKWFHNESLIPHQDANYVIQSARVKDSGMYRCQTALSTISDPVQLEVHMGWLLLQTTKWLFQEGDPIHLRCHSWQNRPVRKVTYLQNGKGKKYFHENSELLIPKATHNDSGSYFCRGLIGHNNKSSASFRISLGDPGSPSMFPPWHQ
Description: as §1

Human FcγRI = target: T3, Human FcγRI (human, UniProt P12314 16-288, limits assumed); test: Biacore
T3 construct: Construct used in Biacore is not described
T3 sequence (P12314 16-288 limits assumed): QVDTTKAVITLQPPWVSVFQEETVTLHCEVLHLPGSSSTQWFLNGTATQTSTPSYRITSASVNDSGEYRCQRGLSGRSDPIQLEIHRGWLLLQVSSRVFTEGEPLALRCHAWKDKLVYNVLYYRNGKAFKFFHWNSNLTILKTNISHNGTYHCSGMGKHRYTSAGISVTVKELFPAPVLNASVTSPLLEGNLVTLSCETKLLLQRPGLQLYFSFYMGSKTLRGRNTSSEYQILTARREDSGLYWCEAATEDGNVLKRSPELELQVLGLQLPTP
Description: as §1

Human FcγRIIa/131H = target: T4, Human FcγRIIa/131H (human, UniProt P12318 36-218, limits assumed); test: Biacore
T4 construct: Polymorphic variant 131H; construct not described
T4 sequence (looked up): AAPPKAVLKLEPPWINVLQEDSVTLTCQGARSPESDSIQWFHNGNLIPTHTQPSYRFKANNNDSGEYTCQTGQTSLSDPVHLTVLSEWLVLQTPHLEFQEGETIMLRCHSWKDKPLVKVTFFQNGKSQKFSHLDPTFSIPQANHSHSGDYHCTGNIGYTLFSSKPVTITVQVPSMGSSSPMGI
Description: as §1

Human FcγRIIa/131R = target: T5, Human FcγRIIa/131R (human, UniProt P12318 36-218, limits assumed); test: Biacore
T5 construct: Polymorphic variant 131R; construct not described
T5 sequence (looked up): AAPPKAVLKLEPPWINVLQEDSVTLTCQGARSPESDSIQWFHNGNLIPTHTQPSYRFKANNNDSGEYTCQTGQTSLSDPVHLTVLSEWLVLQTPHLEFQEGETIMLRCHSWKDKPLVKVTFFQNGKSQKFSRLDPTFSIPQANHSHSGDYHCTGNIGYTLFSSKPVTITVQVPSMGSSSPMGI
Description: as §1

Human FcγRIIIa/158F = target: T6, Human FcγRIIIa/158F (human, UniProt P08637 17-208, limits assumed); test: Biacore
T6 construct: also called Human FcγRIII/158F
T6 sequence (P08637 17-208 limits assumed): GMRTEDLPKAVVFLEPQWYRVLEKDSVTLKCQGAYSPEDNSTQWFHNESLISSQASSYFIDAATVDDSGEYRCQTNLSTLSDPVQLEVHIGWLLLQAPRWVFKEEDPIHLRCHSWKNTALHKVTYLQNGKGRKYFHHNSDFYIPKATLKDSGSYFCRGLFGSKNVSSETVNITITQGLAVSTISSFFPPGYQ
Description: as §1

Human FcγRIIIa/158V = target: T7, Human FcγRIIIa/158V (human, UniProt P08637 17-208, limits assumed); test: Biacore
T7 construct: also called Human FcγRIII/158V
T7 sequence (P08637 17-208 F176V limits assumed): as the sequence (P08637 17-208 limits assumed) above, with F160V counted along it
Description: as §1

Murine FcγRI = target: T8, Murine FcγRI (murine, UniProt P26151 25-297, limits assumed); test: Biacore
T8 construct: Construct not described; also called mFcγRI
T8 sequence (looked up): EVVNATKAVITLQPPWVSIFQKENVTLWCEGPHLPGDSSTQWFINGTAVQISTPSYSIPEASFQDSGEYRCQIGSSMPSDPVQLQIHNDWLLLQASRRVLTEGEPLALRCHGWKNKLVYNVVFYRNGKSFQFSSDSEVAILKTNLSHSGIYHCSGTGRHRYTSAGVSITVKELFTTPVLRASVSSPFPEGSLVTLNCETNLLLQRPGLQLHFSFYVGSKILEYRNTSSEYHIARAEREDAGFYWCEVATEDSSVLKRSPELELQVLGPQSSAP
Description: as §1

[1] = target: T9, human integrin α5β1 on cells (endogenous, HUVEC; tumor or endothelial-expressed) (human, UniProt P08648 42-1049; P05556 21-798); test: cell-based or functional assay
T9 sequence (P08648 42-1049, chain 1 of 2): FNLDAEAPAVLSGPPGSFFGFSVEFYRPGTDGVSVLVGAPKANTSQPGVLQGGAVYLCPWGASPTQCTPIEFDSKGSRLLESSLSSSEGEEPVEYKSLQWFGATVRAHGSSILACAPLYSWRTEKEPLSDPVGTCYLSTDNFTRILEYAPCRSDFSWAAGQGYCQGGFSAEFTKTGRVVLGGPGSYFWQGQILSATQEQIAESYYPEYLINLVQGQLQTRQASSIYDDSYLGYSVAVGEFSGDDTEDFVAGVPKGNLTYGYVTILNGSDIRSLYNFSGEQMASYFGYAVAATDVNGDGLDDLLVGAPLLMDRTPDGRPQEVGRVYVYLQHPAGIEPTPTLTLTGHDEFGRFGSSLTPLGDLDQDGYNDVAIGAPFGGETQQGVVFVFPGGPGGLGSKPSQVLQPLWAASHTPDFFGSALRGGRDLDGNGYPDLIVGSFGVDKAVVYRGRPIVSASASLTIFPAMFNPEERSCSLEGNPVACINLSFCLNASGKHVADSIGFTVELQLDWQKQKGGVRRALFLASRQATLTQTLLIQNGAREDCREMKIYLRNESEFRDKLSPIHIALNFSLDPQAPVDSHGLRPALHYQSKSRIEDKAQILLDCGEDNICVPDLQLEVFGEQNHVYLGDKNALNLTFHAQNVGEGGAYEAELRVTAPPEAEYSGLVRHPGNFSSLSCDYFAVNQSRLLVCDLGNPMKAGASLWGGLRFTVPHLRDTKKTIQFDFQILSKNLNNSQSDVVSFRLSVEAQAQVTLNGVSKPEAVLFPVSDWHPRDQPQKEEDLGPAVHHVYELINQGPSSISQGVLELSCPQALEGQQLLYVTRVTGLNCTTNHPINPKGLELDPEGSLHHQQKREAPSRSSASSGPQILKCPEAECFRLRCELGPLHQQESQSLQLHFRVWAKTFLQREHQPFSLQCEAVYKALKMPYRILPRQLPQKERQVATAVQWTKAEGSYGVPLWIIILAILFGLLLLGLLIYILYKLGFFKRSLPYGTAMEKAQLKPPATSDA
T9 sequence (P05556 21-798, chain 2 of 2): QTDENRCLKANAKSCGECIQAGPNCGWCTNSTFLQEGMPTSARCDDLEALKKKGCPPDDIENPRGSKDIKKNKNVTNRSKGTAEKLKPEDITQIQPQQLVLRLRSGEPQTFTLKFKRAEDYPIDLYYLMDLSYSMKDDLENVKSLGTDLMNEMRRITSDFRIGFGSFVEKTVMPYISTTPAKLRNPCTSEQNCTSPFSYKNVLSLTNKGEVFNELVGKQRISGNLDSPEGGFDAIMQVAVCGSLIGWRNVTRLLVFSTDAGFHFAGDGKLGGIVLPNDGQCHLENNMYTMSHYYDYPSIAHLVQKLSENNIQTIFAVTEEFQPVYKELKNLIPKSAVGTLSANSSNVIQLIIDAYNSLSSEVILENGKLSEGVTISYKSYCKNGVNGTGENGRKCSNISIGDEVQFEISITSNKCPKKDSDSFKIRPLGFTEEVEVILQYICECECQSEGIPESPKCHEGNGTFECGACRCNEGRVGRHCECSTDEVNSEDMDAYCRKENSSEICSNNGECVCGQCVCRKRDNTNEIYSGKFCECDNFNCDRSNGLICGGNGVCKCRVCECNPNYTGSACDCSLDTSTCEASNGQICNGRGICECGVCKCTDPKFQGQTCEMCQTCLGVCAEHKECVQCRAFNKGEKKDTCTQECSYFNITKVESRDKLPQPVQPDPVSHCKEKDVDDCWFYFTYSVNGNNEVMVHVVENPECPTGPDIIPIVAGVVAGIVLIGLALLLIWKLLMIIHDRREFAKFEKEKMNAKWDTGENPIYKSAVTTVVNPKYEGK

[2] = target: T9, human integrin α5β1 on cells …; test: cell-based or functional assay; remark: listed apart in the source
[3] = target: T10, human recombinant α5β1 extracellular domain (human, UniProt P08648 42-995; P05556 21-728); test: Biacore, antibody immobilised, α5β1 extracellular domain flowed, 25.0 C, 4.0 mM CaCl2
T10 construct: extracellular domain; also called α5β1 recombinant extracellular domain; extracellular domain of α5β1
T10 sequence (P08648 42-995, chain 1 of 2): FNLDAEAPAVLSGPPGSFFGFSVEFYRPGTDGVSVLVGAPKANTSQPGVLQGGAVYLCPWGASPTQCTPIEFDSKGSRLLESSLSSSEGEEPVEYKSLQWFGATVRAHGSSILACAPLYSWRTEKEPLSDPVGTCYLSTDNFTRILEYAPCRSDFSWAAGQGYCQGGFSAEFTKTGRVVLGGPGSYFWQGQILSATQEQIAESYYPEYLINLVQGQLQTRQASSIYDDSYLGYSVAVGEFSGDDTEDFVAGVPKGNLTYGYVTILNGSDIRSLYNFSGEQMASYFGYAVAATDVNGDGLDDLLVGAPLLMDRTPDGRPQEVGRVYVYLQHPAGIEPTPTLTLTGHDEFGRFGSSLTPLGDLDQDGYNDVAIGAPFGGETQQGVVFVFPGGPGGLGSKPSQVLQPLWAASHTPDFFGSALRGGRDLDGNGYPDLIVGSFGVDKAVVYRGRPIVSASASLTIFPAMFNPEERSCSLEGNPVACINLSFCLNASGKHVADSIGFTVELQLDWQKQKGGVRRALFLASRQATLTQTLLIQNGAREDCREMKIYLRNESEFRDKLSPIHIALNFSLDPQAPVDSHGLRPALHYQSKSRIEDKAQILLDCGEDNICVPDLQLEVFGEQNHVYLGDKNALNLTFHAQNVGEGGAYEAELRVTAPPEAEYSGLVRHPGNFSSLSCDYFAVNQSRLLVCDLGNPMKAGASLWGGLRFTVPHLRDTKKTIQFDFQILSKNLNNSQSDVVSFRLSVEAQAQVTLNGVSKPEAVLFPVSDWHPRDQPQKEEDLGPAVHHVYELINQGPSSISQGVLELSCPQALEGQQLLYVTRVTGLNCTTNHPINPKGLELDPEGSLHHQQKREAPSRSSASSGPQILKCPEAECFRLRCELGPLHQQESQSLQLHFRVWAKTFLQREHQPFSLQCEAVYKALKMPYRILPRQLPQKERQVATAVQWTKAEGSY
T10 sequence (P05556 21-728, chain 2 of 2): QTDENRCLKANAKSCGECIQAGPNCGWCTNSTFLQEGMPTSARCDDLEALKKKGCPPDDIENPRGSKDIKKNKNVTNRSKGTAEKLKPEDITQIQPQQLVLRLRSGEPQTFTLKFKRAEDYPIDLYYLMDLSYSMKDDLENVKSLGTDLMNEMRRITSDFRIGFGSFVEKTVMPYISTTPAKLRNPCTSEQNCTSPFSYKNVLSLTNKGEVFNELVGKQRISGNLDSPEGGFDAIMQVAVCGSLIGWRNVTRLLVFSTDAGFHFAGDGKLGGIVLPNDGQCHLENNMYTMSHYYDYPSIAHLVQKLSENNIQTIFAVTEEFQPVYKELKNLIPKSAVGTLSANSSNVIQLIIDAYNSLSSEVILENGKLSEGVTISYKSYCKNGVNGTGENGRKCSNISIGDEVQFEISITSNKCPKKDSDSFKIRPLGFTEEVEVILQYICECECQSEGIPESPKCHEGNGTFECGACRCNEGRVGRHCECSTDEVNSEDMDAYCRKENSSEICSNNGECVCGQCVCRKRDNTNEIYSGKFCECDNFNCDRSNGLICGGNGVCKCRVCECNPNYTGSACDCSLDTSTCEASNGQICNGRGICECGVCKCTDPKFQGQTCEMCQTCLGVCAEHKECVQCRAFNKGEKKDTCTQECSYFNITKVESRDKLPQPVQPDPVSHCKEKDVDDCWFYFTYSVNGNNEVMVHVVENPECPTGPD
Description: (§2) Binding kinetics and nominal avidity of 22B5/DLE to the extracellular domain of α5β1 was determined using Biacore analysis (Biacore AB, Uppsala, Sweden). To perform BIAcore kinetic analyses, the 22B5/DLE antibody was immobilized on a biosensor chip and various concentrations of human recombinant α5β1 extracellular domain were flowed across the surface at 25.0° C. (see FIG. 3). The binding data were fit globally to a simple one-to-one binding model with drifting baseline. 22B5/DLE binds reversibly to α5β1. […] The KD was greater when measured in the absence of divalent cations, consistent with cation-dependent activation of integrin.

[4] = target: T10, human recombinant α5β1 extracellular …; test: Biacore, antibody immobilised, α5β1 extracellular domain flowed, 25.0 C, 4.0 mM MgCl2
Description: as §2

Kd (Murine FcγRIII): 1700 nM | Kd (Murine FcγRIV): 9.1 nM | Kd (Human FcγRI): 5.8 nM | Kd (Human FcγRIIa/131H): 1000 nM | Kd (Human FcγRIIa/131R): 650 nM | Kd (Human FcγRIIIa/158F): 27 nM | Kd (Human FcγRIIIa/158V): 9.4 nM | Kd (Murine FcγRI): 96 nM | ADCC EC50 (up to 80% target cell lysis), human PBMCs [1]: 0.04 nM | IC50, inhibition of HUVEC adhesion to fibronectin (fluorescence 485/535 nM) [2]: 1.01 nM | Kd [3]: 2.7 nM | koff [3]: 0.0012 s⁻¹ | kon [3]: 450000 M⁻¹ s⁻¹ | Kd [4]: 4.1 nM | koff [4]: 0.0014 s⁻¹ | kon [4]: 340000 M⁻¹ s⁻¹
B1: 22B5/DLE (antibody, human IgG1, kappa)
heavy: QLQLQESGPGLVKPSETLSLTCTVSGGSISSSSYWGWIRQPPGKGLEWIGSIYYSGRNYNNPSLKSRVTISVDTSKNQFSLKLSSVTAADTAVYYCARHYYGSGSSYYYYDLDVWGQGTTVTVSSASTKGPSVFPLAPSSKSTSGGTAALGCLVKDYFPEPVTVSWNSGALTSGVHTFPAVLQSSGLYSLSSVVTVPSSSLGTQTYICNVNHKPSNTKVDKKVEPKSCDKTHTCPPCPAPELLGGPDVFLFPPKPKDTLMISRTPEVTCVVVDVSHEDPEVKFNWYVDGVEVHNAKTKPREEQYNSTYRVVSVLTVLHQDWLNGKEYKCKVSNKALPLPEEKTISKAKGQPREPQVYTLPPSREEMTKNQVSLTCLVKGFYPSDIAVEWESNGQPENNYKTTPPVLDSDGSFFLYSKLTVDKSRWQQGNVFSCSVMHEALHNHYTQKSLSLSPGK
light: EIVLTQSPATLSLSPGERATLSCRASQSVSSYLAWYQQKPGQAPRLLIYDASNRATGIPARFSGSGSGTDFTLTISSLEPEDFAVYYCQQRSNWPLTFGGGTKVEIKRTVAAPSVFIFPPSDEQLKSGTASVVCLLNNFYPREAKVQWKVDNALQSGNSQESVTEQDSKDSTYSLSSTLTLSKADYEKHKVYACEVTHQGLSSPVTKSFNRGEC
notes: Human IgG1 with Fc mutations S247D, A338L, I340E; the VH already holds the germline back-mutations I30S and N33S; also called 22B5 IgG1 DLE; 22B5 G1 DLE
